PMC9352680, “A comprehensive thermodynamic model for RNA binding by the Saccharomyces cerevisiae Pumilio protein PUF4”

T1: PUF4 RNA-binding domain (Saccharomyces cerevisiae, UniProt P25339 537-888)
T1 sequence: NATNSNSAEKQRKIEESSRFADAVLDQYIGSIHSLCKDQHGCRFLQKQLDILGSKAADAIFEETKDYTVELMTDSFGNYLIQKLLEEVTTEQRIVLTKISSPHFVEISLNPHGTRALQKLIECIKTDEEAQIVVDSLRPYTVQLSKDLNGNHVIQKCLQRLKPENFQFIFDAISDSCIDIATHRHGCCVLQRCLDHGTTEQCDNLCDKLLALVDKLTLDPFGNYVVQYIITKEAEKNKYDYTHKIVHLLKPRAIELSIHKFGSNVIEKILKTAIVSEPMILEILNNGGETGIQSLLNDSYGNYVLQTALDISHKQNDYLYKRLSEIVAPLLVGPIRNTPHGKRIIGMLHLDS


Target: T1, PUF4 RNA-binding domain
Test: Mg; RNA-MaP; 20 mM Na-HEPES pH 7.4, 30 mM KOAc, 0.75 mM MgCl2, 0.1% Tween-20, 5% glycerol, 0.1 mg/mL BSA, 2 mM DTT; 25 C; 0.0125-409.6 nM protein
Settings: tags: N-His6-TEV cleaved; C-SNAP kept, Cy3B-labelled; label: tethered on chip by stalled RNA polymerase

Binder	Kd
ACAAACCAUAUAUUAUUACUACAAAC (ssRNA) [Id_ii_S3_P5E.3_K5.2_C5.2_[T-1A]_H5.2_A5.1_F5.1_T5.2_[T11C]_[A12T]]	168 nM
ACAAACAUUAUAUUAUUAGAACAAAC (ssRNA) [Id_ii_S3_P5E.3_K5.2_C5.2_[C-2A]_H5.2_A5.1_F5.1_T5.2_[T11G]]	144 nM
ACAAACCGUAUAUUAUUAGAACAAAC (ssRNA) [Id_ii_S3_P5E.3_K5.2_C5.2_[T-1G]_H5.2_A5.1_F5.1_T5.2_[T11G]]	15.8 nM
ACAAACUCUAUAUUAUUACGACAAAC (ssRNA) [Id_ii_S3_P5E.3_K5.2_C5.2_[C-2T]_[T-1C]_H5.2_A5.1_F5.1_T5.2_[T11C]_[A12G]]	230 nM
ACAAACAAUAUAUUAUUAAAACAAAC (ssRNA) [Id_ii_S3_P5E.3_K5.2_C5.2_[C-2A]_[T-1A]_H5.2_A5.1_F5.1_T5.2_[T11A]]	550 nM
ACAAACCCUAUAUUAUUAACACAAAC (ssRNA) [Id_ii_S3_P5E.3_K5.2_C5.2_[T-1C]_H5.2_A5.1_F5.1_T5.2_[T11A]_[A12C]]	452 nM
ACAAACGGACACUUAUUAGCACAAAC (ssRNA) [Id_ii_S3_P5E.4_K5.3_C5.2_[C-2G]_[T-1G]_H5.3_A5.1_F5.1_T5.2_[T11G]_[A12C]]	> 2300 nM
ACAAACCUUAUAUUAUUAUUACAAAC (ssRNA) [Id_ii_S3_P5E.3_K5.2_C5.2_H5.2_A5.1_F5.1_T5.2_[A12T]]	208 nM
UCUCUUCGAAUUAUUAUCUCUU (ssRNA) [Ib_S1_P5E.1_K5.1_C5.1_H5.1_[T1C]_[T3A]_A5.1_F5.1_T5.1]	> 2300 nM
ACAAACACUAUAUUAUUACGACAAAC (ssRNA) [Id_ii_S3_P5E.3_K5.2_C5.2_[C-2A]_[T-1C]_H5.2_A5.1_F5.1_T5.2_[T11C]_[A12G]]	493 nM
ACAAACUAUAUAUUAUUAAUACAAAC (ssRNA) [Id_ii_S3_P5E.3_K5.2_C5.2_[C-2T]_[T-1A]_H5.2_A5.1_F5.1_T5.2_[T11A]_[A12T]]	18.3 nM
ACAAACCUUAUAUUAUUACGACAAAC (ssRNA) [Id_ii_S3_P5E.3_K5.2_C5.2_H5.2_A5.1_F5.1_T5.2_[T11C]_[A12G]]	406 nM
ACAAACGAUAUAUUAUUACCACAAAC (ssRNA) [Id_ii_S3_P5E.3_K5.2_C5.2_[C-2G]_[T-1A]_H5.2_A5.1_F5.1_T5.2_[T11C]_[A12C]]	519 nM
UCUCUUCAUAUUAUUAUCUCUU (ssRNA) [Ib_S1_P5E.1_K5.1_C5.1_H5.1_[T1C]_[G2A]_A5.1_F5.1_T5.1]	> 2300 nM
ACAAACGGACACUUAUUACAACAAAC (ssRNA) [Id_ii_S3_P5E.4_K5.3_C5.2_[C-2G]_[T-1G]_H5.3_A5.1_F5.1_T5.2_[T11C]]	> 2300 nM
ACAAACAUUAUAUUAUUACAACAAAC (ssRNA) [Id_ii_S3_P5E.3_K5.2_C5.2_[C-2A]_H5.2_A5.1_F5.1_T5.2_[T11C]]	464 nM

Binder	Kd
ACAAACCAUAUAUUAUUAAUACAAAC (ssRNA) [Id_ii_S3_P5E.3_K5.2_C5.2_[T-1A]_H5.2_A5.1_F5.1_T5.2_[T11A]_[A12T]]	157 nM
ACAAACGCACACUUAUUAUAACAAAC (ssRNA) [Id_ii_S3_P5E.4_K5.3_C5.2_[C-2G]_[T-1C]_H5.3_A5.1_F5.1_T5.2]	> 2300 nM
ACAAACAUUAUAUUAUUAGGACAAAC (ssRNA) [Id_ii_S3_P5E.3_K5.2_C5.2_[C-2A]_H5.2_A5.1_F5.1_T5.2_[T11G]_[A12G]]	94.3 nM
ACAAACGCUAUAUUAUUAAUACAAAC (ssRNA) [Id_ii_S3_P5E.3_K5.2_C5.2_[C-2G]_[T-1C]_H5.2_A5.1_F5.1_T5.2_[T11A]_[A12T]]	480 nM
ACAAACGAUAUAUUAUUAAUACAAAC (ssRNA) [Id_ii_S3_P5E.3_K5.2_C5.2_[C-2G]_[T-1A]_H5.2_A5.1_F5.1_T5.2_[T11A]_[A12T]]	285 nM
ACAAACUUUAUAUUAUUACGACAAAC (ssRNA) [Id_ii_S3_P5E.3_K5.2_C5.2_[C-2T]_H5.2_A5.1_F5.1_T5.2_[T11C]_[A12G]]	381 nM
ACAAACCUUAUAUUAUUAGCACAAAC (ssRNA) [Id_ii_S3_P5E.3_K5.2_C5.2_H5.2_A5.1_F5.1_T5.2_[T11G]_[A12C]]	59.3 nM
ACAAACAAUAUAUUAUUAUCACAAAC (ssRNA) [Id_ii_S3_P5E.3_K5.2_C5.2_[C-2A]_[T-1A]_H5.2_A5.1_F5.1_T5.2_[A12C]]	576 nM
ACAAACGCACACUUAUUAGAACAAAC (ssRNA) [Id_ii_S3_P5E.4_K5.3_C5.2_[C-2G]_[T-1C]_H5.3_A5.1_F5.1_T5.2_[T11G]]	> 2300 nM
ACAAACGAUAUAUUAUUAACACAAAC (ssRNA) [Id_ii_S3_P5E.3_K5.2_C5.2_[C-2G]_[T-1A]_H5.2_A5.1_F5.1_T5.2_[T11A]_[A12C]]	313 nM
ACAAACCUUAUAUUAUUAAUACAAAC (ssRNA) [Id_ii_S3_P5E.3_K5.2_C5.2_H5.2_A5.1_F5.1_T5.2_[T11A]_[A12T]]	459 nM
ACAAACGUUAUAUUAUUACUACAAAC (ssRNA) [Id_ii_S3_P5E.3_K5.2_C5.2_[C-2G]_H5.2_A5.1_F5.1_T5.2_[T11C]_[A12T]]	580 nM
ACAAACGAUAUAUUAUUAAAACAAAC (ssRNA) [Id_ii_S3_P5E.3_K5.2_C5.2_[C-2G]_[T-1A]_H5.2_A5.1_F5.1_T5.2_[T11A]]	704 nM
UCUCUUAGUGUUAUUAUCUCUU (ssRNA) [Ib_S1_P5E.1_K5.1_C5.1_H5.1_[T1A]_[A4G]_A5.1_F5.1_T5.1]	> 2300 nM
ACAAACACUAUAUUAUUAAGACAAAC (ssRNA) [Id_ii_S3_P5E.3_K5.2_C5.2_[C-2A]_[T-1C]_H5.2_A5.1_F5.1_T5.2_[T11A]_[A12G]]	626 nM
